Reference: US20190144529A1 (UCB, published 2019)

B1: CA645 gL4gH46 Fab (Fab, V domains shown)
VH: EVQLLESGGGLVQPGGSLRLSCAVSGIDLSNYAINWVRQAPGKGLEWIGIIWASGTTFYATWAKGRFTISRDNSKNTVYLQMNSLRAEDTAVYYCARTYPGYSTAPYFDLWGQGTLVTVSS
VL: DIQMTQSPSSVSASVGDRVTITCQSSPSVWSNFLSWYQQKPGKAPKLLIYEASKLTSGVPSRFSGSGSGTDFTLTISSLQPEDFATYYCGGGYSSISDTTFGGGTKVEIK
notes: Fab: human gamma1 CH1, human kappa (Km3); Kabat numbering
B2: CA645 humanized IgG1 (conservative graft gL1gH1) (antibody, V domains shown)
VH: EVQLLESGGGLVQPGGSLRLSCAVSGIDLSNYAINWVRQAPGKGLEWIGIIWASGTTFYATWAKGRFTISRDSTTVYLQMNSLRAEDTAVYYCARTVPGYSTAPYFDLWGQGTLVTVSS
VL: DIVMTQSPSSVSASVGDRVTITCQSSPSVWSNFLSWYQQKPGKAPKLLIYEASKLTSGVPSRFKGSGSGTDFTLTISSLQPEDFATYYCGGGYSSISDTTFGGGTKVEIK
notes: Human IgG1, full human gamma1 constant region, human kappa constant region (Km3 allotype); also called CA645 gL1gH1
B3: CA645 gL29gH5 Fab (Fab, V domains shown)
VH: EVQLLESGGGLVQPGGSLRLSCAVSGIDLSNYAINWVRQAPGKGLEWIGIIWASGTTFYATWAKGRFTISRDNSKNTVYLQMNSLRAEDTAVYYCARTVPGYSTAPYFDLWGQGTLVTVSS
VL: DIQMTQSPSSVSASVGDRVTITCQSSPSVWSNFLSWYQQKPGKAPKLLIYEASKLTSGVPSRFSGSGVGTDFTLTISSLQPEDFATYYCGGGYSSISDTTFGGGTKVEIK
notes: as for B1
B4: CA645 gL5gH5 Fab (Fab, V domains shown)
VH: EVQLLESGGGLVQPGGSLRLSCAVSGIDLSNYAINWVRQAPGKGLEWIGIIWASGTTFYATWAKGRFTISRDNSKNTVYLQMNSLRAEDTAVYYCARTVPGYSTAPYFDLWGQGTLVTVSS
VL: DIQMTQSPSSVSASVGDRVTITCQSSPSVASNFLSWYQQKPGKAPKLLIYEASKLTSGVPSRFSGSGSGTDFTLTISSLQPEDFATYYCGGGYSSISDTTFGGGTKVEIK
notes: as for B1
B5: CA645 gL33gH5 Fab (Fab, V domains shown)
VH: EVQLLESGGGLVQPGGSLRLSCAVSGIDLSNYAINWVRQAPGKGLEWIGIIWASGTTFYATWAKGRFTISRDNSKNTVYLQMNSLRAEDTAVYYCARTVPGYSTAPYFDLWGQGTLVTVSS
VL: DIQMTQSPSSVSASVGDRVTITCQSSPSVWSNFLSWYQQKPGKAPKLLIYEASKLTSGVPSRFSGSGEGTDFTLTISSLQPEDFATYYCGGGYSSISDTTFGGGTKVEIK
notes: as for B1
B6: CA645 gL11gH5 Fab (Fab, V domains shown)
VH: EVQLLESGGGLVQPGGSLRLSCAVSGIDLSNYAINWVRQAPGKGLEWIGIIWASGTTFYATWAKGRFTISRDNSKNTVYLQMNSLRAEDTAVYYCARTVPGYSTAPYFDLWGQGTLVTVSS
VL: DIQMTQSPSSVSASVGDRVTITCQSSPNVWSNFLSWYQQKPGKAPKLLIYEASKLTSGVPSRFSGSGSGTDFTLTISSLQPEDFATYYCGGGYSSISDTTFGGGTKVEIK
notes: as for B1
B7: CA645 gL30gH5 Fab (Fab, V domains shown)
VH: EVQLLESGGGLVQPGGSLRLSCAVSGIDLSNYAINWVRQAPGKGLEWIGIIWASGTTFYATWAKGRFTISRDNSKNTVYLQMNSLRAEDTAVYYCARTVPGYSTAPYFDLWGQGTLVTVSS
VL: DIQMTQSPSSVSASVGDRVTITCQSSPSVWSNFLSWYQQKPGKAPKLLIYEASKLTSGVPSRFSGSGIGTDFTLTISSLQPEDFATYYCGGGYSSISDTTFGGGTKVEIK
notes: as for B1
B8: CA645 gL31gH5 Fab (Fab, V domains shown)
VH: EVQLLESGGGLVQPGGSLRLSCAVSGIDLSNYAINWVRQAPGKGLEWIGIIWASGTTFYATWAKGRFTISRDNSKNTVYLQMNSLRAEDTAVYYCARTVPGYSTAPYFDLWGQGTLVTVSS
VL: DIQMTQSPSSVSASVGDRVTITCQSSPSVWSNFLSWYQQKPGKAPKLLIYEASKLTSGVPSRFSGSGTGTDFTLTISSLQPEDFATYYCGGGYSSISDTTFGGGTKVEIK
notes: as for B1
B9: CA645 gL28gH5 Fab (Fab, V domains shown)
VH: EVQLLESGGGLVQPGGSLRLSCAVSGIDLSNYAINWVRQAPGKGLEWIGIIWASGTTFYATWAKGRFTISRDNSKNTVYLQMNSLRAEDTAVYYCARTVPGYSTAPYFDLWGQGTLVTVSS
VL: DIQMTQSPSSVSASVGDRVTITCQSSPSVWSNFLSWYQQKPGKAPKLLIYEASKLTSGVPSRFSGSGLGTDFTLTISSLQPEDFATYYCGGGYSSISDTTFGGGTKVEIK
notes: as for B1
B10: CA645 gL26gH5 Fab (Fab, V domains shown)
VH: EVQLLESGGGLVQPGGSLRLSCAVSGIDLSNYAINWVRQAPGKGLEWIGIIWASGTTFYATWAKGRFTISRDNSKNTVYLQMNSLRAEDTAVYYCARTVPGYSTAPYFDLWGQGTLVTVSS
VL: DIQMTQSPSSVSASVGDRVTITCQSSPSVWYNFLSWYQQKPGKAPKLLIYEASKLTSGVPSRFSGSGSGTDFTLTISSLQPEDFATYYCGGGYSSISDTTFGGGTKVEIK
notes: as for B1
B11: CA645 gL32gH5 Fab (Fab, V domains shown)
VH: EVQLLESGGGLVQPGGSLRLSCAVSGIDLSNYAINWVRQAPGKGLEWIGIIWASGTTFYATWAKGRFTISRDNSKNTVYLQMNSLRAEDTAVYYCARTVPGYSTAPYFDLWGQGTLVTVSS
VL: DIQMTQSPSSVSASVGDRVTITCQSSPSVWSNFLSWYQQKPGKAPKLLIYEASKLTSGVPSRFSGSGQGTDFTLTISSLQPEDFATYYCGGGYSSISDTTFGGGTKVEIK
notes: as for B1
B12: CA645 recombinant rabbit Fab (Fab, V domains shown)
VH: QSLEESGGRLVTPGTPLTLTCTVSGIDLSNYAINWVRQAPGKGLEWIGIIWASGTTFYATWAKGRFTISRPSTTVDLEMTSLTTADTATYFCARTVPGYSTAPYFDLWGPGTLVTVSS
VL: AAVLTQTPSPVSAAVGGTVTINCQSSPSVWSNFLSWYQQKPGQPPKLLIYEASKLTSGVPSRFKGSGSGTQFTLTISDVQCGDAATYYCGGGYSSISDTTFGGGTKVVVK
notes: Fab with rabbit heavy CH1 and rabbit light chain constant region
B13: CA645 rabbit antibody secreted in B cell supernatant (antibody, V domains shown)
VH: QSLEESGGRLVTPGTPLTLTCTVSGIDLSNYAINWVRQAPGKGLEWIGIIWASGTTFYATWAKGRFTISRPSTTVDLEMTSLTTADTATYFCARTVPGYSTAPYFDLWGPGTLVTVSS
VL: AAVLTQTPSPVSAAVGGTVTINCQSSPSVWSNFLSWYQQKPGQPPKLLIYEASKLTSGVPSRFKGSGSGTQFTLTISDVQCGDAATYYCGGGYSSISDTTFGGGTKVVVK
notes: Rabbit IgG secreted by cultured B cells

Assays:
human serum albumin [1] = target: T1, human serum albumin (human, UniProt P02768 25-609); assay: SPR, Fab captured; albumin taken as HSA
T1 construct: mature; Bought purified serum albumin; also called HSA; Human albumin
Method: (§1) Each assay cycle consisted of firstly capturing the antibody sample using a 1 min injection, before an association phase consisting of a 3 min injection of albumin, after which dissociation was monitored. After each cycle, the capture surface was regenerated with two 1 min injections of 40 mM HCl followed by 30 s of 5 mM NaOH. The flow rates used were 10 μl/min for capture, 30 μl/min for both the association and dissociation phases, and 10 μl/min for regeneration. A blank flow-cell was used for reference subtraction and buffer-blank injections were included to subtract instrument noise and drift.

rat serum albumin [2] = target: T2, rat serum albumin (rat, UniProt P02770 25-608); assay: SPR, humanized IgG1
T2 construct: mature; Bought purified serum albumin; also called RSA; Rat albumin
Method: (§2) For analysis at pH 7.0, 6.0, 5.5 and 5.0, a running buffer of 40 mM citric acid, 80 mM sodium phosphate 50 mM NaCl, 3 mM EDTA, 0.05% v/v P20 was used. The required pH was achieved by altering the ratio of citric acid to sodium phosphate. All experiments were performed at 25° C. The antibody samples were captured to the sensor chip surface using either a human F(ab′)₂-specific or human Fc-specific goat Fab (Jackson ImmunoResearch). Covalent immobilisation of the capture antibody was achieved by standard amine coupling chemistry to a level of 6000-7000 response units (RU).
as §1

mouse serum albumin [3] = target: T3, mouse serum albumin (mouse, UniProt P07724 25-608); assay: SPR, humanized IgG1
T3 construct: mature; Bought purified serum albumin; also called MSA; Mouse albumin
Method: as §2, §1

human serum albumin [4] = target: T1, human serum albumin; assay: SPR, humanized IgG1
Method: as §2, §1

mouse serum albumin [5] = target: T3, mouse serum albumin; assay: SPR, Fab captured, albumin titrated
Method: as §2, §1

human serum albumin [6] = target: T1, human serum albumin; assay: SPR, Fab captured, albumin titrated
Method: as §2, §1

mouse serum albumin [7] = target: T3, mouse serum albumin; assay: SPR
Method: as §2, §1

human serum albumin [8] = target: T1, human serum albumin; assay: SPR, Fab captured, HSA
Method: as §2, §1

human serum albumin [9] = target: T1, human serum albumin; assay: SPR, HSA
Method: as §2, §1

human serum albumin [10] = target: T1, human serum albumin; assay: SPR, Fab captured; albumin taken as HSA; remark: listed apart in the source
Method: as §1

mouse serum albumin [11] = target: T3, mouse serum albumin; assay: SPR, rabbit Fab
human serum albumin [12] = target: T1, human serum albumin; assay: SPR, rabbit Fab
rat serum albumin [13] = target: T2, rat serum albumin; assay: FMAT, B cell supernatant

Binder	Kd (human serum albumin [1]) [nM]	koff (human serum albumin [1]) [s⁻¹]	kon (human serum albumin [1]) [M⁻¹ s⁻¹]	also measured
B1	3.26	0.000184	56400	
B2				Kd (rat serum albumin [2]): 7.9 nM; Kd (mouse serum albumin [3]): 2.9 nM; Kd (human serum albumin [4]): 0.82 nM
B3	1.78	0.000103	57700	
B4				Kd (mouse serum albumin [5]): 316 nM; koff (mouse serum albumin [5]): 0.0038 s⁻¹; kon (mouse serum albumin [5]): 12000 M⁻¹ s⁻¹; Kd (human serum albumin [6]): 254 nM; koff (human serum albumin [6]): 0.022 s⁻¹; kon (human serum albumin [6]): 85000 M⁻¹ s⁻¹; fold weaker affinity for MSA than for HSA (mouse serum albumin [7]): 1.2 fold; Kd (human serum albumin [8]): 453 nM; koff (human serum albumin [8]): 0.0571 s⁻¹; kon (human serum albumin [8]): 126000 M⁻¹ s⁻¹; fold weaker affinity than gL4gH5 (human serum albumin [9]): 368 fold
B5	3.32	0.000179	54000	
B6	4.42	0.000249	56400	
B7	1.61	9.4e-05	58400	
B8	2.49	0.000142	57200	
B9	1.85	0.000109	59000	
B10				Kd (human serum albumin [10]): 4.13 nM; koff (human serum albumin [10]): 0.000248 s⁻¹; kon (human serum albumin [10]): 60100 M⁻¹ s⁻¹
B11	2.44	0.000143	58600	
B12				Kd (mouse serum albumin [11]): 2.6 nM; Kd (human serum albumin [12]): 0.31 nM
B13				fold difference of binding level to RSA against HSA (rat serum albumin [13]): ≤ 5 fold
